One substance from article doi:10.1101/2021.09.29.462438 can be followed below.

The assay addresses N-terminal soluble domain of Bacteroides fragilis FeoAB fusion protein (BfNFeoAB) (Bacteroides fragilis). In words: SEC.

The stoichiometry N is the number of molecules, sites or subunits per partner or assembly.

Regarding “N-terminal soluble domain of Bacteroides fragilis FeoAB fusion protein (BfNFeoAB) (domain or fragment)”, the stoichiometry N stood at 3.
